Assay results as given in US20240092867A1 (UNIVERSITY OF CHICAGO, published 2024).

T1: placental growth factor (PlGF)-2 (human, UniProt P49763-3 19-170)
T1 construct: mature; Purchased in mature form
T1 sequence (looked up): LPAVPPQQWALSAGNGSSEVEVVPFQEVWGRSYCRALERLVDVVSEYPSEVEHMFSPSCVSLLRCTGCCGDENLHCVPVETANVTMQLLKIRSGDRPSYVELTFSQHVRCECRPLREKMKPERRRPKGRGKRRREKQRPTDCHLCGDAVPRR

T2: vascular endothelial growth factor (VEGF)-A121 (human, UniProt P15692-9 27-147)
T2 construct: mature; Purchased in mature form, not glycosylated
T2 sequence (looked up): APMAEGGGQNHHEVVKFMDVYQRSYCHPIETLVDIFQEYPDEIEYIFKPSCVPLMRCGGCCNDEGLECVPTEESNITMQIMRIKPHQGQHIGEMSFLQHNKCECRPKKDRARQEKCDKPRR

T3: placental growth factor (PlGF)-1 (human, UniProt P49763-2 19-149)
T3 construct: mature; Purchased in mature form
T3 sequence (looked up): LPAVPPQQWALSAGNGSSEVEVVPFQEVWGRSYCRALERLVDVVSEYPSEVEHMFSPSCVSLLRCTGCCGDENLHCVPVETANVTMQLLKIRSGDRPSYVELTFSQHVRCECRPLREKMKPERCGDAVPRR

T4: recombinant human syndecan-1 (human, UniProt P18827 23-254, limits assumed)
T4 construct: Histidine tag of unstated position and length
T4 sequence (looked up): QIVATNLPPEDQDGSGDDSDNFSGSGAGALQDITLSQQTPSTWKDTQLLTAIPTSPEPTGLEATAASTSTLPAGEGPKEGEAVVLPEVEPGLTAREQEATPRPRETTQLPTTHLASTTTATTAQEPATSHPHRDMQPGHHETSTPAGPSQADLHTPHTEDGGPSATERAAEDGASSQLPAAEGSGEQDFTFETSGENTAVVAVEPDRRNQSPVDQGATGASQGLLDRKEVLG

T5: recombinant human syndecan-4 (human, UniProt P31431 19-145, limits assumed)
T5 construct: Histidine tag of unstated position and length
T5 sequence (looked up): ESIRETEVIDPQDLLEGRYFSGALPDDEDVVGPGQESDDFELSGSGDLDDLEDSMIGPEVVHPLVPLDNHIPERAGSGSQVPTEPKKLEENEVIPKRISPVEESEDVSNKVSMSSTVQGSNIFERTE

B1: α2PI1-8-α3 3043-3067 (peptide)
peptide: NQEQVSPLRLVFALGTDGKKLRIKSKEKCNDGK
B2: α2PI1-8-α5 3417-3436 (peptide)
peptide: NQEQVSPLRQRSRPGRWHKVSVRWEKNR
B3: laminin α3 2932-2951 peptide (Linker) (peptide)
peptide: PPFLMLLKGSTRFNKTKTFR
notes: Chemically synthesized (Genscript)
B4: laminin α5 3300-3330 peptide (Linker) (peptide)
peptide: TPGLGPRGLQATARKASRRSRQPARHPACML
notes: as for B3
B5: vWF A1 HBD (24 residues, C-terminal Cys) (peptide)
peptide: YIGLKDRKRPSELRRIASQVKYAC
notes: also the peptide coupled into the PEG matrix; also called vWF HBD-Cys; vWF A1 HBD peptide
B6: laminin α4 1408-1434 peptide (Linker) (peptide)
peptide: PLFLLHKKGKNLSKPKASQNKKGGKSK
notes: as for B3
B7: laminin α5 3417-3436 peptide (LG4) (peptide)
peptide: RQRSRPGRWHKVSVRWEKNR
notes: as for B3
B8: FabCol-FgHBD conjugates (Fab)
light: EIVLTQSPGTLSLSPGERATLSCRASQSVSSSYLAWYQQKPGQAPRLLIYGASSRATGIPDRFSGSGSGTDFTLTISRLEPEDFAVYYCQQAIGFPQTFGQGTKVEIKRTVAAPSVFIFPPSDEQLKSGTASVVCLLNNFYPREAKVQWKVDNALQSGNSQESVTEQDSKDSTYSLSSTLTLSKADYEKHKVYACEVTHQGLSSPVTKSFNRGEC
heavy: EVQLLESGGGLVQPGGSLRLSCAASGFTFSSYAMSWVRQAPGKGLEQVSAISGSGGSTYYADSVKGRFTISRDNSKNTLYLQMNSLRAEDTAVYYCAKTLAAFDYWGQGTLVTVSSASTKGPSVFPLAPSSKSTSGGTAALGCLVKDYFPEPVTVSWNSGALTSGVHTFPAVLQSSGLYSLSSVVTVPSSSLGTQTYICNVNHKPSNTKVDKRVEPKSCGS
peptide: GCGGSLRPAPPPISGGGYRARPAKAAATQKKVERKAPDA
modifications: chemically conjugated to FabCol with sulfo-SMCC crosslinker; multiple copies per FabCol (shift of about 35 kDa)
notes: Chemical conjugate
B9: FabCol-p(FgHBD) recombinant fusion protein (Fab)
light: EIVLTQSPGTLSLSPGERATLSCRASQSVSSSYLAWYQQKPGQAPRLLIYGASSRATGIPDRFSGSGSGTDFTLTISRLEPEDFAVYYCQQAIGFPQTFGQGTKVEIKRTVAAPSVFIFPPSDEQLKSGTASVVCLLNNFYPREAKVQWKVDNALQSGNSQESVTEQDSKDSTYSLSSTLTLSKADYEKHKVYACEVTHQGLSSPVTKSFNRGECGAGGGSGGGHRPLDKKREEAPSLRPAPPPISGGGYRARPAKAAATQKKVERKAPDAGGGSGGGSGGGHRPLDKKREEAPSLRPAPPPISGGGYRARPAKAAATQKKVERKAPDAGGGSGGGSGGGHRPLDKKREEAPSLRPAPPPISGGGYRARPAKAAATQKKVERKAPDAGGGT
heavy: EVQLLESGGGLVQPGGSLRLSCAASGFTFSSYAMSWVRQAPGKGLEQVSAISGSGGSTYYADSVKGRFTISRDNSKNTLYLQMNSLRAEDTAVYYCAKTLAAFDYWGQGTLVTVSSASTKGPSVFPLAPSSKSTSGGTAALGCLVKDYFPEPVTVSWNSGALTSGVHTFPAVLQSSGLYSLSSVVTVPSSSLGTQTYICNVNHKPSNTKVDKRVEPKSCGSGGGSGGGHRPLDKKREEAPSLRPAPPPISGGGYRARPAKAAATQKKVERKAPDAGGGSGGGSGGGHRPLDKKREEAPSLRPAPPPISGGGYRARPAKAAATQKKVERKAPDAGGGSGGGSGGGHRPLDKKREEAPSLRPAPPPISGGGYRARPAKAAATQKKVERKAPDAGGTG
notes: Three repeats of FgHBD at the C-termini of both Fab chains

How the values were obtained:
[1] = biological target: T6, platelet-derived growth factor (PDGF)-BB (human, UniProt P01127 82-190); assay: cell-based or functional assay
T6 sequence (P01127 82-190): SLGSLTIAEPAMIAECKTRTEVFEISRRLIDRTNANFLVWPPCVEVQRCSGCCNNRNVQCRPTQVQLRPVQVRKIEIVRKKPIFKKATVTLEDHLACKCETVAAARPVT

[2] = biological target: T7, vascular endothelial growth factor (VEGF)-A165 (human, UniProt P15692-4 27-191); assay: cell-based or functional assay
[3] = biological target: T1, placental growth factor (PlGF)-2; assay: ELISA; peptide coated (10 µg/mL, legend paragraph 53), 1 µg/mL PlGF-2 in solution, BSA-coated wells as control [panel D]
Protocol: (§1) (A) The location of laminin-derived peptides in the LG domain of laminin α3, α4, and α5 chains. (B-F) Affinity of heparin and GFs against chemically synthesized peptides derived from the LG domain of laminin α3, α4, and α5 chains. ELISA plates were coated with 10 μg/mL laminin peptide and further incubated with (B) biotinylated heparin, (C) VEGF-A165 and VEGF-A121, (D) PlGF-2 and PlGF-1, (E) PDGF-BB, or (F) FGF-2. Concentrations were 1 μg/mL for GFs and 10 μg/mL for heparin. Bound heparin was detected with streptavidin, and bound GFs with a specific antibody for each GF (n=4, mean±SEM). Statistical analyses were done using the Mann-Whitney U test by comparing the signals obtained from the laminin peptide- and the BSA-coated wells. *p<0.05, **p<0.01.
(§2) ELISA tests were performed as described above. […] 1 μg/mL of BSA served as non-binding protein control. After blocking with 2% BSA PBS-0.05% Tween 20 (PBS-T) solution, 1 μg/mL of the recombinant human proteins (VEGF-A121, VEGF-A165, PlGF-1, PlGF-2, PDGF-BB or FGF-2) or 10 μg/mL of biotinylated heparin (Sigma-Aldrich) were added. Bound GF was detected with biotinylated antibodies for human VEGF, PlGF, PDGF-BB, or FGF-2 (R&D Systems). The antibodies were detected by streptavidin-HRP (R&D Systems).

[4] = biological target: T6, platelet-derived growth factor (PDGF)-BB; assay: ELISA; peptide coated (10 µg/mL, legend paragraph 53), 1 µg/mL PDGF-BB in solution, BSA-coated wells as control [panel E]
Protocol: as §1, §2

[5] = biological target: T8, fibroblast growth factor (FGF)-2 (human, UniProt P09038 143-288); assay: ELISA, peptide coated, GF 1 µg/mL
T8 construct: mature; Purchased in mature form
T8 sequence (P09038 143-288): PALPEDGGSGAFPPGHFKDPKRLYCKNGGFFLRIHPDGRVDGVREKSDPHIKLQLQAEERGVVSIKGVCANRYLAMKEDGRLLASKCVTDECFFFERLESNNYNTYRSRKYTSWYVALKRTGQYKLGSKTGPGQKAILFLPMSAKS
Protocol: as §1, §2

[6] = biological target: T7, vascular endothelial growth factor …; assay: ELISA, peptide coated, GF 1 µg/mL
Protocol: as §1, §2

[7] = biological target: T2, vascular endothelial growth factor …; assay: ELISA, peptide coated
Protocol: as §1, §2

[8] = biological target: T3, placental growth factor (PlGF)-1; assay: ELISA, peptide coated
Protocol: as §1, §2

[9] = biological target: T8, fibroblast growth factor (FGF)-2; assay: ELISA; peptide coated (10 µg/mL, legend paragraph 53), 1 µg/mL FGF-2 in solution, BSA-coated wells as control [panel F]
Protocol: as §1, §2

[10] = biological target: T1, placental growth factor (PlGF)-2; assay: ELISA, peptide coated, GF 1 µg/mL
Protocol: as §1, §2

[11] = biological target: T6, platelet-derived growth factor (PDGF)-BB; assay: ELISA; peptide coated (10 µg/mL, legend paragraph 53), GF in solution, BSA-coated wells as control [panel E]
Protocol: as §1, §2

[12] = biological target: T4, recombinant human syndecan-1; assay: ELISA, peptide coated, syndecan 1 µg/mL, anti-His detection
Protocol: (§3) ELISA tests were performed as described above. In brief, ELISA plates were coated with 1 μg/mL laminin peptide (sequences are described in Table 1, chemically synthesized by Genscript) in PBS for 2 hrs at 37° C. 1 μg/mL of BSA served as non-binding protein control. After blocking with 2% BSA PBS-T solution, 1 μg/mL of the recombinant human syndecan-1, syndecan-2, syndecan-3, syndecan-4 (all syndecan proteins are histidine-tagged; SinoBiological) were added. Bound GF was detected with anti-histidine tag antibody (1:1000 dilution, BioLegend).

[13] = biological target: T5, recombinant human syndecan-4; assay: as above
Protocol: as §3

[14] = biological target: T9, recombinant human syndecan-2 (human, UniProt P34741 19-144, limits assumed); assay: as above
T9 construct: Histidine tag of unstated position and length
T9 sequence (P34741 19-144 limits assumed): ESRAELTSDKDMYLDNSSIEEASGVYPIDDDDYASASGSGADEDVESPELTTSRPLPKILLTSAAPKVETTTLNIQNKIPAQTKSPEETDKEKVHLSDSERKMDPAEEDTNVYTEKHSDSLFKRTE
Protocol: as §3

[15] = biological target: T2, vascular endothelial growth factor …; assay: ELISA; peptides and vWF forms coated at 50 nM, VEGF-A in solution, detected with anti-VEGF-A antibody [panel D]
Protocol: (A) Diagram of exon sequence of VEGF-A showing inclusion (+) or exclusion (−) of heparin binding domain exons for the different VEGF-A isoforms. […] Bound VEGF-A was detected using a specific antibody for VEGF-A (n=4, mean±SD). Statistical comparisons were done using ANOVA with Tukey's test compared with BSA control. **p<0.01.
ELISA was performed as previously reported1. […] After blocking with 2% BSA solution containing PBS-T, 1 μg/mL of recombinant human VEGF-A121 (PeproTech), recombinant human VEGF-A145 (R & D Systems), or recombinant human VEGF-A165 (PeproTech) was added. Bound VEGF-A was detected with 1 μg/mL of mouse anti-human VEGF-A antibody (clone: 26503, R & D systems). After 60 min of incubation, horseradish peroxidase (HRP) conjugated goat anti-mouse antibody (1:2000 dilution, Dako) was added and incubated for another 60 min. Color development and the absorbance measurement were done as described above.

[16] = biological target: T6, platelet-derived growth factor (PDGF)-BB; assay: ELISA, peptide coated, GF 1 µg/mL
Protocol: as §1, §2

[17] = biological target: T10, bovine type I collagen (bovine, UniProt P02453 178-1191; P02465 89-1102); assay: ELISA, collagen I coated, 0.01-30 nM binder
T10 construct: PureCol, Advanced BioMatrix; coated on the plate; also called collagen I; PureCol
T10 sequence (P02453 178-1191, chain 1 of 2): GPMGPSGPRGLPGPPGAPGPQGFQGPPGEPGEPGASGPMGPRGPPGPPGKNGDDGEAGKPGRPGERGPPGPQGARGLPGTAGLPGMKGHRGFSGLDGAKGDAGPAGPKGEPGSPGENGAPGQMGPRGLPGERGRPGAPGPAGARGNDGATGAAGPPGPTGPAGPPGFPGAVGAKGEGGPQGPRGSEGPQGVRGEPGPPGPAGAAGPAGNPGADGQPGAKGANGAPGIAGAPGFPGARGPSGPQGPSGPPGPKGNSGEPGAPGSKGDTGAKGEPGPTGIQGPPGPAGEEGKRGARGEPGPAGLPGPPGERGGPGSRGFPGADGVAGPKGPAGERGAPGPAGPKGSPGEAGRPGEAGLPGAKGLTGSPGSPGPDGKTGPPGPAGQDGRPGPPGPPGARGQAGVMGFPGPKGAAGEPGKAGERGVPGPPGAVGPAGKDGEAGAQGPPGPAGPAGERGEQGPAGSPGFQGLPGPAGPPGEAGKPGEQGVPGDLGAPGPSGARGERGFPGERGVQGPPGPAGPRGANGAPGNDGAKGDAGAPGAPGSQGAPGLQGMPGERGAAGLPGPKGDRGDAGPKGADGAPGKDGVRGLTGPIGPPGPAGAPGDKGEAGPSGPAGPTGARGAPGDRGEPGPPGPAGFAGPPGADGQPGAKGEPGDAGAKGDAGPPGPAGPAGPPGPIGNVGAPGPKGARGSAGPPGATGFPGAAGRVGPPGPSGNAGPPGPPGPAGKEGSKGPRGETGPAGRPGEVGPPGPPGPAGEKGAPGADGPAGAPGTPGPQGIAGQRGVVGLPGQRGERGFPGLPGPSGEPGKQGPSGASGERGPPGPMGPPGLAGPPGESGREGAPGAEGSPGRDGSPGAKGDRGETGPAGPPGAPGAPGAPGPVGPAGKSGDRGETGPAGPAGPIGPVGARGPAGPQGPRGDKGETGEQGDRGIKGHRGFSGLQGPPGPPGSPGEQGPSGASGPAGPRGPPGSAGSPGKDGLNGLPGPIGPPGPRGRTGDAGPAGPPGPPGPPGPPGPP
T10 sequence (P02465 89-1102, chain 2 of 2): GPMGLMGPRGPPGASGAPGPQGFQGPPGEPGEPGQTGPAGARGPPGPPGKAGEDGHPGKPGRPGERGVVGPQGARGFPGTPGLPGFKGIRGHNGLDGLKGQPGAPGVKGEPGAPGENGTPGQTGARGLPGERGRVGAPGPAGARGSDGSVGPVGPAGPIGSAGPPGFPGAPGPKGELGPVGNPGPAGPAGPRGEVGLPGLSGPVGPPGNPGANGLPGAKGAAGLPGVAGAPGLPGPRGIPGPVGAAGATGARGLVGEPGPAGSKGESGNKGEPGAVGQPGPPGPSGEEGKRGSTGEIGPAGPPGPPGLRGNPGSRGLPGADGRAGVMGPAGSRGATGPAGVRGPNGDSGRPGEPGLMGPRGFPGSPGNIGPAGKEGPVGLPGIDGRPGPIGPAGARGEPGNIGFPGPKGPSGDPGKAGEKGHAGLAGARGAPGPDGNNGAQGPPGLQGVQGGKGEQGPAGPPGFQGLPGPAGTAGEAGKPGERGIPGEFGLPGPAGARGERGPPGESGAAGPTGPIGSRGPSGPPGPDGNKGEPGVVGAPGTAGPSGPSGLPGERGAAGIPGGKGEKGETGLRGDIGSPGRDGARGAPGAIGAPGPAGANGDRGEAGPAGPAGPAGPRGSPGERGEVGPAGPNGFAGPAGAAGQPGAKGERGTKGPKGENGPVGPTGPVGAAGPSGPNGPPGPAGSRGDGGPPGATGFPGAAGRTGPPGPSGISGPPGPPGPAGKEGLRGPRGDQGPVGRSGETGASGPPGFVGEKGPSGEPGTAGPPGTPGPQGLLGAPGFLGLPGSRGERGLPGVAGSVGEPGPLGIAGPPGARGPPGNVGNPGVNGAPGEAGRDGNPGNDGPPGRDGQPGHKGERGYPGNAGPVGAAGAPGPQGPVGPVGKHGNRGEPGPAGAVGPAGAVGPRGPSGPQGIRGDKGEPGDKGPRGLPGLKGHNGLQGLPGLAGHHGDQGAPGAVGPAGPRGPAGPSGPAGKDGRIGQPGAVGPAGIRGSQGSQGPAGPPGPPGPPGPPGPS
Protocol: ELISA plates (NUNC MaxiSorp, ThermoFisher Scientific) were coated overnight with 10 μg/mL of bovine type I collagen (PureCol, Advanced BioMatrix, San Diego CA, USA) at room temperature. The plate was further blocked using 2% bovine serum albumine (BSA) for 2 h at room temperature. […] The plate was washed thrice in PBST, and an horseradish peroxidase-conjugated anti-human Fab antibody (Jackson ImmunoResearch,) was used to detect bound FabCol variants. […] Absorbance at 450 nm was read using […], and corrected using the absorbance at 570 nm. Curve fits and dissociation constant KD were computed using Prism (GraphPad Software Inc., USA).

[18] = biological target: T11, recombinant human BMP-2 (human, UniProt P12643 283-396); assay: ELISA, rhBMP-2 coated 50 nM, binder 50 nM
T11 construct: also called rhBMP-2
T11 sequence (P12643 283-396 limits assumed): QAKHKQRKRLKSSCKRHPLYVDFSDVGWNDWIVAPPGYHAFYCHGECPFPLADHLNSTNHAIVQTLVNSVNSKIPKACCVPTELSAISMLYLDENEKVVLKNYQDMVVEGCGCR
Protocol: ELISA plates (NUNC MaxiSorp) were coated with 50 nM of recombinant human BMP-2 (CHO produced, R&D Systems, Minneapolis MN, USA) overnight at room temperature.

Binder | binding result [5] | binding result [6] | binding result [7] | binding result [8] | binding result [10] | binding result [12] | binding result [13] | binding result [14] | other results
B1 |  |  |  |  |  |  |  |  | cumulative release of GF from peptide-functionalized fibrin matrix after 5 days [1]: 45%; cumulative release of GF from peptide-functionalized fibrin matrix after 5 days [2]: 25%
B2 |  |  |  |  |  |  |  |  | cumulative release of GF from peptide-functionalized fibrin matrix after 5 days [1]: 47%; cumulative release of GF from peptide-functionalized fibrin matrix after 5 days [2]: 31%
B3 | binds | binds | no binding (tested: 1 µg/mL) | no binding (tested: 1 µg/mL) |  |  |  |  | binding result [3]: binds; binding result [4]: binds
B4 |  | binds | no binding (tested: 1 µg/mL) | no binding (tested: 1 µg/mL) | binds | binds | binds | binds | binding result [9]: binds; binding result [11]: no binding (tested: 1 µg/mL PDGF-BB (single concentration))
B5 |  |  |  |  |  |  |  |  | binding result [15]: no binding (tested: 1 µg/mL VEGF-A121 (single concentration))
B6 | binds | binds | no binding (tested: 1 µg/mL) | no binding (tested: 1 µg/mL) | binds | binds | binds | binds | binding result [16]: binds
B7 | binds | binds | no binding (tested: 1 µg/mL) | no binding (tested: 1 µg/mL) | binds | binds | binds | binds | binding result [16]: binds
B8 |  |  |  |  |  |  |  |  | Kd [17]: ~2.8 nM
B9 |  |  |  |  |  |  |  |  | Kd [17]: ~1.7 nM; binding result [18]: binds
